The record followed here is a protein production outcome set (Wang et al. 2014).

The data set is described as follows: label from the status in PepcDB records.
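Further: failed if final PepcDB status was selected cloned or expressed and not failed if soluble or beyond.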

On to “MNRKLRRANLKASEPTPHETGNVINYMRQGRYAEAAHLAKGLTERFPDHGFGWKILGICTLLLGQNGDALPLFLKAAGLLPDDPDIHCNIGIIYYELNQLNEAEYYCRYALKLRPNDAIAHNNLGNILSSLGRLDEAEACFRRAIENNPDLAQAHYNLGSALQALGRLEEAESCYRRATAIRPTYEEAYASLGNVLKEMGRLDEALESWKLSLAHQEDWTNALRRLTNPLLMDGDLTRGPEYPAADAAEGQPRQLSSHPAAASVESLDRKYRVPSHGHDGSAEAGAVAGRDENAPRPLRIVLVYPPLWQIPSADLAVPEGMPFGPPATAGGPVAISRELKTITQGVLSIAAQAKKAGHDVRVYNLFNAPWADIVALIAGTGADVYGVSAYNSNRRGMGALCALIRQYHPHAHITVGGPFATTLPLETLRYYRAIDTVVVGEGEETFMELLDHIRSHRPAVGIPGTAWRNGDEVALGPVRPRIGDLDTLASHFDYYSSNIVMTSRGCPSKCSFCGNPVLWGRKIRFYSTDYCIDMFRKALARLPVPYLMIADDTFTANQQRTLNMCDAIIGNKLDFLWSCSTRVDAMEDKVLHRMRRAGCQEIMIGVESGSPEILERIHKGITPEMVLTVTRAAKKYGMLVHYYMMVINRGETPDTLQASIDLIKAGRPNSYDLTPLMFLPGTEDYGHLCEQQGLTSDIFFRNDFMDISVERKRKKDLDTVMQHLYCSIGTIGGYEYTVAEREAVVEHLPDVPTVHVELANAYLRAGQLDKATAALTRAEELGFPIGNIILNQHACIALARNQIDTSLDFLERACRSFPDVTVKGNYDKLAAWIDSRTSGQVKPCLLCDSVRAQDFVFRADETAP”, for which the protein production result is recorded as “failed”.
Regarding “MNRLKNMSKYSDAKELASLTLGKKTEYANQYDPSLLQPVPRSLNRNDLHLSATLPFQGCDIWTLYELSWLNQKGLPQVAIGEVSIPATSANLIESKSFKLYLNSYNQTRFASWDEVQTRLVHDLSACAGETVTVNVKSLNEYTAEPIVTMQGECIDDQDIEIANYEFDDALLQGAAQGEEVSEVLHSHLLKSNCLITNQPDWGSVEIAYHGAKMNREALLRYLVSFREHNEFHEQCVERIFTDIMRYCQPQSLTVYARYTRRGGLDINPFRSSHQSAPNHNQRMARQ”, the protein production result is reported as “not failed”.
The result for “MNRLQGMELFVEVARTLSFGRAAENLAIPKSTLSRQVAELERSVGLRLLSRTTRRVELTEAGQLYFERCQRIVAEARIAHEELQNLVETPSGPLRVNMPADFGTDFLSEAFTEFSRRYPEVTFYLDLASPEHAERVFQTCDVSIEIGDLPDSTHIARLLGVLPAHLYASPDYLARHGEPQHPDDLPRHECIQFRAGTGRVTRWPLNSGERHVEITPGNRFSVNSVSMVRNLATLGAGIAILAPMGNVREDIESGRLKRILPDWLAGPFPVYAVTDTRMLPAKTRIFVEFLMERLSNKTLAGQNNPAFLNLR” reads “failed”.
To “MNRRKISALLLSCTLAMNISSFNEIVLADENKGEEVQKESHNESNCIAGDYHEVNNGNAKNTENTPVINGIKVNKQLIDINYSQGVTINPKYIVIHDTDNRQAGANAMANRNYFANHPNAKASAHYIIDEGNIIQALEDTWKGWHVGDGNNPNINNSTTIAIELCVNKENDFDKTLENGIELTKYLVNKYNIPAENVVMHRDASGKTCSRMMIEDRPSLWPYFKERISGGDGSLEDDGLKPKMQGKVTNASVLNVRESPSTSGRIVHKLNRNQVVGIYEELNGWYKIDYIDGVKKKYGYVSKDYISIINENPEDEETNGDIEIEKPSVSVNKQGIVKVNSALNMRSGPGSNYGVIGTLRNNDEVEIIKEVDGWYEIKFNGKSGYVSSQYIKVLDNESNEEKPVEPEKPSVSLNKQGVVKVNSALNMRSGPGSNYGVIGTLRNNDEVEIIKEVDGWYEIKFNGKSGYVSSQYIKVLDNESNEEKPVEPEKPSVSLNKQGVVKVNSALNMRSGPGSNYGVIGTLRNNDKVEIIKEVDGWYEIRFNGKVGYASKSYITIVNEGSNNGTDSVIKEGTVYGVSTNLNVRTGPGTSYQVIGYLLSGDKVKILGDENGWYKVQFNASTGTKNGYVSKDYIKV” belongs “failed”.
Consider “MNRRVVIVTAVHGPSAPFLPEAYASLCAQELPDGWEWRWVIQEDGRTQDVRPHVPDDPRVVFHQGRHGRQGGPGVARTMALAHADGAYVKVLDADDRLTPGALARDLAALEADPSIGWATSRVLDLLPDGSTAGFPGDPAHGPIERGEVLDFWRANGFRAQVHPATLLVRRDLLLAVGGWMALPASEDTGLLLALNCVSRGWFTEDVGLLYRKWEGQETGQASHVDPAERDARMTVVEARARALASFGWRLPEGTGDFDHLEHHHHHH”, for which the protein production entry was “failed”.
As to “MNRSFNIIISFKFIFWNMKSKPMNVIFDVLNEIHGFFGALWAGAALLNFLIKPQDKRQFERIGRFFLITSIITIITGIIIFAYIYLAPYQGNLFLVAAILRSSLDIRIRAFLNLIGGAFGLLAFGAGIVISNRIRLMVRVKEGDVTILELRNSVSNLSKISLVFLLISLAMMILAGSIAQVIT”, the protein production result was “failed”.
The result for “MNRSRDKVRCALNHQNAGSIPVDFGSTAVTGIHCRIVEALRNYYGLAPRPVKIVDAFQMLGEIDAELAEKIGVDCIGIGGPKDIFDLDTTRMHEQTTPWGQRVLVPEAMDLTPDMRGDVYVYAGGDQNYPPSAVMPKGCYFINAIERQQPIEEDRLDPEDNVEEFGLLTENDLAYYCAEADKAYQTGRAVVASFGGTALGDVAFVPGMGLKQPKGIRSVVEWYMSTAMRQDYLHQVFEKEIDIAIANYEKLWAALGDKIDVVLTCGTDFGSQESQFCSIDTFRELWLPHYRRMNDWIHQHTTWKIFKHSCGAIIPILPGLIEAGFDIINPVQINAKDMDSRRLKEEFGSQLTFWGGGVDTQKILPFGTPDEIRRHVMGQCEILGRDGGFVFNAVHNVQANVPVDNVVAMFDALKDISLEHHHHHH” reads “failed”; that for “MNRVKDKRLWLSIVGITGLGLLSGLFSVNAREYYQALRLPSFAPPGWLFGPVWLVLYIFMGITFYFILVHPNKQQKKRMITLFILQFIANFFWTFFFFSLQNNLLSVIDISLLWLLLIIQQWDYLRYKLITRGWLMIPYILWVTFAAALNYSILFLN”, “not failed”.
Consider “MNSCVLFAEVIQGPELRYTQENQMAVATMVVQFASLRSEEPPMSLRTVAWGNLGQKMHAECKVGDRLILEGRLKMDTIDRPEGFKEKRAELVVSRFYTVDGNIVDHPAQPAATVPVTPRVAPPPPEFEDISLDEVPFLEHHHHHH”, for which the protein production entry is recorded as “not failed”.
To “MNSEKDVMADASAMRTSMHALAVYGATPLFVLLWSGGAIFSRVGLSHASPFAFLTLRFVIALPLLAAIGVARRCMLPAPGTRVRVAVTGALMIGGYSISYLLALDFGMTPGVLATVLGVQPILTLLWMERRVSVARLAGLTLALAGLVTIVADSLMAARFSMAGWGAALAALACMTVGAIGQKGIRQAAVEILPLQYTVALAMCLLCVPFQPFRFEHVPGFFFPLLWMGIVISVVATLLFYRLIQAGNLVNVTSLFYLVPPVTVLLDFVALSNRPAPLALVGMIAIPVGLALAFRAGR” belongs “failed”; to “MNSELFQKLAKAQTDEERSWIVTESLLATLSPELAAAAWAAVVPHWFNAEILAALRPELQAQSSQLYTKLQALSFVEEFADRGHDVHDLTRNLMLKHLWQEHQDEFITLSQRAAEYFGRNNQQPETQIEWLYHLIVVDREWKGSEFWNLAQNWDNSFRVAELESLIAALLEQIAAERVETLAKAEVYYWAGKAKFRVYKAKEALERYEEALAFYRNIGVSEAPPVEARLGEANTLQAIGDVLQFLDRRTEALERYEEALAFYRDIGDRLGEANTLRAIGDVLQFLDRRTEALERYEEALAFYRDIGARLGEANTLQAIGDVLQFLKRSTEALERYEEALAFYRDIGDRLGEANTLRAIGDVLQFLDRRTEALERYEEALAFYRDIGARLGEANTLKAIGDVLQFLKRSTEALERYEEALAFYRDIGARLGEANTLRAIGDVLQFLDRRTEALERYEEALAFYRDIGDRLGEANTLRAIGDVLQFLKRSTEALERYEEALAFYRDIGDRLGEANTLRAIGDVLQFLKRSTEALERYEEALAFYRDIGDRLGEANTLQAIGILQDDLTVGLEYCQAALELYRQIGTKYSQSRNLIYFTSTILLKLERQTEAIDALNRAIELAKEIPYQYFVEDALAKLKKIQSSDSNI”, “failed”; to “MNSFPAQNLMLSATNANKDSGLRTSNAHWLHSCIAVPKTTGIDLSQEPPAEGVMVPQSHLFPPPIRDSRNDTETVKQKSVNQSPSKALKPKPQRKKRSVSNKSKKTPSIPETKREKKNLDINIDISSFDTSGVPPPVCSCTGVSRVCYKWGMGGWQSSCCTISISTYPLPMSTTRPGARLAGRKMSNGAYVKLLARLADEGYDLSHPLDLKNHWARHGTNKFVTIK”, “failed”.
For “MNSFYSQEELKKIGFLSVGKNVLISKKASIYNPGVISVGNNVRIDDFCILSGKVTIGSYSHIAAYTALYGGEVGIEMYDFANISSRTIVYAAIDDFSGNALMGPTIPNQYKNVKTGKVILKKHVIIGAHSIIFPNVVIGEGVAVGAMSMVKESLDDWYIYVGVPVRKIKALEHHHHHH”, the protein production result is listed as “not failed”.
As to “MNSHMLVSSEIDIGLNKSNIERPPGSKKRTKHLPCEVPLAESADRILEPQDYLNFTRFSLGFVETETYDNPRFGGHQTLSERERSYSAVNQTIHCGFVKGTGFDLSEKDRAYMKNCVVSVSSCIFGSSDFLRRPATKKISEFSKRNVCFVMFVDEQTLSKLASEGHVPDKQGFVGLWKTVVVSNLPYNDMRKTGKVPKFLSHRLFPSSRYSIWLDSKMRLTTDPMLIIDFFLWRTKSEFAISNHYDRHCVWDEVLQNKRLNKYNHSAIDEQFMFYRSDGLKKFDPSDPNSPLPSYVPEGSFIVRAHTPMSNLFTCLWFNEVDRFTSRDQLSFAYTYLKLQRLNSDRPLRLNMFKDCERRALTKLFHHRVDSSPPSPPT”, the protein production result is “not failed”.
To “MNSIKTPLLFLLIAFSSIFQSFSAGKPLGYEIKATIKGVKQADTVYLARYYADKRFYQDTAIADAKGFVSFSDTTHLKEGMYFLLLPGQKVFDFILNPSTLSFSIDTTNLIKSAHFKNSPDNTAFYDYQRFFMNQKTKADSINNLMKSAAATQKTVLTKQLSDIDSTMLAYIQNFLKTNPNSLFTAILKTTKDVDVPPAPKKADGSIDSSWQFHYYKKHYFDNVNFSDDRLIRTPVLVNKVDGYFKNLVVQRPDSIIKEIDMIISKCNPKGDLFEYYVREYTYKYETSQVMGMDAVFVHLGKEYYMKGKCFWATPETVKKIKERVDLLDPLLLGKKAPNLYMTDTTGTYRYLYDVQAKYTILFFWDSQCGHCQQETPKLYDWWLKNRAKGIQVYAANIERKDEEWLKFIRSKKIGGWLNVRDSKNHTDFKITYDIYATPVLYVLDKNKVIIAKRIGYENLDDFLVQYEKSLKTK” belongs “failed”; to “MNSIQIADETYVAADAARVSAAVADRCSWRRWWPDLRLQVTEDRADKGIRWTVTGALTGTMEIWLEPSMDGVLLHYFLHAEPTGVAAWQLARMNLARMTHHRRVAGKKMAFEVKTVLERSRPIGVSPVT”, “failed”; to “MNSLINIFNQYSELAIFISLFISVIIALLGIVPSVFVTGANIVFFGPINGFLISLLGEVIGGWISFKVYRKGINKFAGNIEGKYELIDKIVKSEGRNVGILIFEGRLIPFIPSGLVTLAAAMSKVNSFTFIISTFLGKIPSILLEVLASYGVIMASQKNLKLVIGVLSLILFLLTLKKLKDKTNKK”, “failed”.
Turning to “MNSLLFVYGTLRKHEKNHHLLAQSACINEQARTKGSLFAAKEGPTVVFNDEDEGYIYGEVYEADELCIHKLDQFFQGYHKQTVFVETDVGIKIALIYFMNKDGCAGFTKISSGDWKEHQMISKSKNPIYYFAYGSCMDNARFQKAGVDHYFQDPVGRAVLKGYTTRFTLKREDGSRADMLEDGGTTEGVLYRIPYSALSYLYKREGVESLTYRPAFVDVEAGGRHYKDCLTFLVLQKEAEIAPPQHYQIEIERGAELYLSPEFTEKLKRHMNSLPKGLEHHHHHH”, the protein production entry is recorded as “not failed”.
